Results published in article PMC8198530, “The Odd Faces of Oligomers: The Case of TRAF2-C, A Trimeric C-Terminal Domain of TNF Receptor-Associated Factor” (International Journal of Molecular Sciences, 2021).

Target: the molecule itself
Assay: dynamic light scattering; TRAF2-C 4 uM in kinase buffer (20 mM Tris-HCl pH 7.6, 150 mM NaCl, 10% glycerol); 20-35 °C, where the particle distribution is sharp and mono-disperse

B1: TRAF2-C, C-terminal domain truncated form of TNF Receptor Associated Factor 2 (TRAF2) (domain or fragment, human, UniProt Q12933 310-501, looked up)
chain: DQDKIEALSSKVQQLERSIGLKDLAMADLEQKVLEMEASTYDGVFIWKISDFARKRQEAVAGRIPAIFSPAFYTSRYGYKMCLRIYLNGDGTGRGTHLSLFFVVMKGPNDALLRWPFNQKVTLMLLDQNNREHVIDAFRPDVTSSSFQRPVNDMNIASGCPLFCPVSKMEAKNSYVRDDAIFIKAIVDLTGL
notes: human TRAF2, C-terminal domain (TRAF2-C), residues 310-501; It describes the protein as a trimer in equilibrium with dimers and monomers; also called TRAF2-C domain; source: E. coli BL21 (DE3), purified (NiNTA, Sephadex G25)
binding result: binds
